The text below walks through data of patent US20260167728A1 (published 2026).

The target of this assay is T1, huCD3e-mFc (human, UniProt P07766 23-126).
T1 construct: not shown: mFc, not described
As to the kind of experiment: Pool 3 screen.

Broadly, the Kd is the constant that tells how readily two partners part at equilibrium.

T1 sequence (P07766 23-126): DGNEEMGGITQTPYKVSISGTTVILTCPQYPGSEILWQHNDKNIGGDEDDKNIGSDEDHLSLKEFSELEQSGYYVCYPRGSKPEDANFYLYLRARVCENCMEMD

B1: AC3804 (CD3.300) (scFv, V domains shown)
VH: EVQLVESGGGIVQPGGSLRLSCAASGFTFSTYAMNWVRQAPGKGLEWVGRIRTKRNNYATYYADSVKGRFTISRDDSKNTVYLQMNSLKTEDTAVYYCVRHENFGNSYVSWFAHWGQGTLVTVSS
VL: ELVVTQEPSLTVSPGGTVTLTCRSSNGAVTSSNYANWVQQKPGQAPRGLIGGTNKRAPGTPARFSGSLLEGKAALTLSGVQPEDEAVYYCALWYPNLWVFGGGTKLTVL
notes: Pool 3 format (remarks)
In the case of B1, the Kd is 36.6 nM.

B2: AC3820 (CD3.316) (scFv, V domains shown)
VH: EVQLVESGGGIVQPGGSLRLSCAASGFTFSTYAMNWVRQAPGKGLEWVGRIRTKRNDYATYYADSVKGRFTISRDDSKNTLYLQMNSLKTEDTAVYYCVRHENFGNSYVSWFAHWGQGTLVTVSS
VL: ELVVTQEPSLTVSPGGTVTLTCRSSNGAVTSSNYANWVQQKPGQAPRGLIGGTNKRAPGTPARFSGSLDGGKAALTLSGVQPEDEAVYYCALWYPNLWVFGGGTKLTVL
notes: Pool 3 format (remarks)
B2: binding was put at a Kd of 3.99 nM.

B3: AC3807 (CD3.303) (scFv, V domains shown)
VH: EVQLVESGGGIVQPGGSLRLSCAASGFTFSTYAMNWVRQAPGKGLEWVGRIRTKRNDYATYYADSVKGRFTISRDDSKNTAYLQMNSLKTEDTAVYYCVRHENFGNSYVSWFAHWGQGTLVTVSS
VL: ELVVTQEPSLTVSPGGTVTLTCRSSNGAVTSSNYANWVQQKPGQAPRGLIGGTNKRAPGTPARFSGSGLGGKAALTLSGVQPEDEAVYYCALWYPNLWVFGGGTKLTVL
notes: Pool 3 format (remarks)
With B3, the Kd stood at 6.08 nM.

B4: AC3824 (CD3.320) (scFv, V domains shown)
VH: EVQLVESGGGIVQPGGSLRLSCAASGFTFNTYAMNWVRQAPGKGLEWVGRIRTKTNNYATYYADSVKGRFTISRDDSKNTVYLQMNSLKTEDTAVYYCVRHENFGNSYVSWFAHWGQGTLVTVSS
VL: ELVVTQEPSLTVSPGGTVTLTCRSSNGAVTSSNYANWVQQKPGQAPRGLIGGTNKRAPGTPARFSGSALGGKAALTLSGVQPEDEAVYYCALWYPNLWVFGGGTKLTVL
notes: Pool 3 format (remarks)
B4 displayed a Kd of 10.9 nM.

B5: AC3806 (CD3.302) (scFv, V domains shown)
VH: EVQLVESGGGIVQPGGSLRLSCAASGFTFSTYAMNWVRQAPGKGLEWVGRIRTKRNDYATYYADSVKGRFTISRDDSKNTAYLQMNSLKTEDTAVYYCVRHENFGNSYVSWFAHWGQGTLVTVSS
VL: ELVVTQEPSLTVSPGGTVTLTCRSSNGAVTSSNYANWVQQKPGQAPRGLIGGTNKRAPGTPARFSGSALGGKAALTLSGVQPEDEAVYYCALWYPNLWVFGGGTKLTVL
notes: Pool 3 format (remarks)
B5 yielded a Kd of 5.09 nM.

B6: AC3810 (CD3.306) (scFv, V domains shown)
VH: EVQLVESGGGIVQPGGSLRLSCAASGFTFSTYAMNWVRQAPGKGLEWVGRIRTKRNDYATYYADSVKGRFTISRDDSKNTAYLQMNSLKTEDTAVYYCVRHENFGNSYVSWFAHWGQGTLVTVSS
VL: ELVVTQEPSLTVSPGGTVTLTCRSSNGAVTSSNYANWVQQKPGQAPRGLIGGTNKRAPGTPARFSGSLGGGKAALTLSGVQPEDEAVYYCALWYPNLWVFGGGTKLTVL
notes: Pool 3 format (remarks)
B6 came in with a Kd of 5.09 nM.

B7: AC3818 (CD3.314) (scFv, V domains shown)
VH: EVQLVESGGGIVQPGGSLRLSCAASGFTFSTYAMNWVRQAPGKGLEWVGRIRTKRNDYATYYADSVKGRFTISRDDSKNTLYLQMNSLKTEDTAVYYCVRHENFGNSYVSWFAHWGQGTLVTVSS
VL: ELVVTQEPSLTVSPGGTVTLTCRSSNGAVTSSNYANWVQQKPGQAPRGLIGGTNKRAPGTPARFSGSLEGGKAALTLSGVQPEDEAVYYCALWYPNLWVFGGGTKLTVL
notes: Pool 3 format (remarks)
The molecule B7 displayed a Kd of 4.02 nM.

B8: AC3815 (CD3.311) (scFv, V domains shown)
VH: EVQLVESGGGIVQPGGSLRLSCAASGFTFSTYAMNWVRQAPGKGLEWVGRIRTKRNDYATYYADSVKGRFTISRDDSKNTLYLQMNSLKTEDTAVYYCVRHENFGNSYVSWFAHWGQGTLVTVSS
VL: ELVVTQEPSLTVSPGGTVTLTCRSSNGAVTSSNYANWVQQKPGQAPRGLIGGTNKRAPGTPARFSGSALGGKAALTLSGVQPEDEAVYYCALWYPNLWVFGGGTKLTVL
notes: Pool 3 format (remarks)
In the case of B8, the Kd turned out to be 4.53 nM.

B9: AC3814 (CD3.310) (scFv, V domains shown)
VH: EVQLVESGGGIVQPGGSLRLSCAASGFTFSTYAMNWVRQAPGKGLEWVGRIRTKRNDYATYYADSVKGRFTISRDDSKNTLYLQMNSLKTEDTAVYYCVRHENFGNSYVSWFAHWGQGTLVTVSS
VL: ELVVTQEPSLTVSPGGTVTLTCRSSNGAVTSSNYANWVQQKPGQAPRGLIGGTNKRAPGTPARFSGSLLGGKAALTLSGVQPEDEAVYYCALWYPNLWVFGGGTKLTVL
notes: Pool 3 format (remarks)
B9: the affinity, expressed as Kd, was 4.1 nM.

B10: AC3816 (CD3.312) (scFv, V domains shown)
VH: EVQLVESGGGIVQPGGSLRLSCAASGFTFSTYAMNWVRQAPGKGLEWVGRIRTKRNDYATYYADSVKGRFTISRDDSKNTLYLQMNSLKTEDTAVYYCVRHENFGNSYVSWFAHWGQGTLVTVSS
VL: ELVVTQEPSLTVSPGGTVTLTCRSSNGAVTSSNYANWVQQKPGQAPRGLIGGTNKRAPGTPARFSGSGLGGKAALTLSGVQPEDEAVYYCALWYPNLWVFGGGTKLTVL
notes: Pool 3 format (remarks)
Take B10: the dissociation constant Kd was determined as 4.12 nM.

B11: AC3808 (CD3.304) (scFv, V domains shown)
VH: EVQLVESGGGIVQPGGSLRLSCAASGFTFSTYAMNWVRQAPGKGLEWVGRIRTKRNDYATYYADSVKGRFTISRDDSKNTAYLQMNSLKTEDTAVYYCVRHENFGNSYVSWFAHWGQGTLVTVSS
VL: ELVVTQEPSLTVSPGGTVTLTCRSSNGAVTSSNYANWVQQKPGQAPRGLIGGTNKRAPGTPARFSGSLNGGKAALTLSGVQPEDEAVYYCALWYPNLWVFGGGTKLTVL
notes: Pool 3 format (remarks)
B11 yielded a Kd of 4.31 nM.

B12: AC3821 (CD3.317) (scFv, V domains shown)
VH: EVQLVESGGGIVQPGGSLRLSCAASGFTFSTYAMNWVRQAPGKGLEWVGRIRTKRNDYATYYADSVKGRFTISRDDSKNTLYLQMNSLKTEDTAVYYCVRHENFGNSYVSWFAHWGQGTLVTVSS
VL: ELVVTQEPSLTVSPGGTVTLTCRSSNGAVTSSNYANWVQQKPGQAPRGLIGGTNKRAPGTPARFSGSLLGGKAGLTLSGVQPEDEAVYYCALWYPNLWVFGGGTKLTVL
notes: Pool 3 format (remarks)
Regarding B12, binding was put at a Kd of 4.1 nM.

B13: AC3817 (CD3.313) (scFv, V domains shown)
VH: EVQLVESGGGIVQPGGSLRLSCAASGFTFSTYAMNWVRQAPGKGLEWVGRIRTKRNDYATYYADSVKGRFTISRDDSKNTLYLQMNSLKTEDTAVYYCVRHENFGNSYVSWFAHWGQGTLVTVSS
VL: ELVVTQEPSLTVSPGGTVTLTCRSSNGAVTSSNYANWVQQKPGQAPRGLIGGTNKRAPGTPARFSGSLNGGKAALTLSGVQPEDEAVYYCALWYPNLWVFGGGTKLTVL
notes: Pool 3 format (remarks)
B13: binding was put at a Kd of 3.86 nM.

B14: AC3819 (CD3.315) (scFv, V domains shown)
VH: EVQLVESGGGIVQPGGSLRLSCAASGFTFSTYAMNWVRQAPGKGLEWVGRIRTKRNDYATYYADSVKGRFTISRDDSKNTLYLQMNSLKTEDTAVYYCVRHENFGNSYVSWFAHWGQGTLVTVSS
VL: ELVVTQEPSLTVSPGGTVTLTCRSSNGAVTSSNYANWVQQKPGQAPRGLIGGTNKRAPGTPARFSGSLGGGKAALTLSGVQPEDEAVYYCALWYPNLWVFGGGTKLTVL
notes: Pool 3 format (remarks)
Turning to B14, the Kd amounted to 3.4 nM.

B15: AC3812 (CD3.308) (scFv, V domains shown)
VH: EVQLVESGGGIVQPGGSLRLSCAASGFTFSTYAMNWVRQAPGKGLEWVGRIRTKRNDYATYYADSVKGRFTISRDDSKNTAYLQMNSLKTEDTAVYYCVRHENFGNSYVSWFAHWGQGTLVTVSS
VL: ELVVTQEPSLTVSPGGTVTLTCRSSNGAVTSSNYANWVQQKPGQAPRGLIGGTNKRAPGTPARFSGSLLGGKAGLTLSGVQPEDEAVYYCALWYPNLWVFGGGTKLTVL
notes: Pool 3 format (remarks)
In turn, B15 displayed a Kd of 5.56 nM.
